From patent publication US20190127434

B1: UCH-L3, human recombinant (protein)
chain: MEGQRWLPLEANPEVTNQFLKQLGLHPNWQFVDVYGMDPELLSMVPRPVCAVLLLFPITEKYEVFRTEEEEKIKSQGQDVTSSVYFMKQTISNACGTIGLIHAIANNKDKMHFESGSTLKKFLEESVSMSPEERARYLENYDAIRVTHETSAHEGQTEAPSIDEKVDLHFIALVHVDGHLYELDGRKPFPINHGETSDETLLEDAIEVCKKFMERDPDELRFNAIALSAA
B2: Recombinant Human UCH-L5/UCH37 (protein)
chain: MTGNAGEWCLMESDPGVFTELIKGFGCRGAQVEEIWSLEPENFEKLKPVHGLIFLFKWQPGEEPAGSVVQDSRLDTIFFAKQVINNACATQAIVSVLLNCTHQDVHLGETLSEFKEFSQSFDAAMKGLALSNSDVIRQVHNSFARQQMFEFDTKTSAKEEDAFHFVSYVPVNGRLYELDGLREGPIDLGACNQDDWISAVRPVIEKRIQKYSEGEIRFNLMAIVSDRKMIYEQKIAELQRQLAEEEPMDTDQGNSMLSAIQSEVAKNQMLIEEEVQKLKRYKIENIRRKHNYLPFIMELLKTLAEHQQLIPLVEKAKEKQNAKKAQETK
B3: Recombinant Human USP2 Catalytic Domain (protein)
chain: NSKSAQGLAGLRNLGNTCFMNSILQCLSNTRELRDYCLQRLYMRDLHHGSNAHTALVEEFAKLIQTIWTSSPNDVVSPSEFKTQIQRYAPRFVGYNQQDAQEFLRFLLDGLHNEVNRVTLRPKSNPENLDHLPDDEKGRQMWRKYLEREDSRIGDLFVGQLKSSLTCTDCGYCSTVFDPFWDLSLPIAKRGYPEVTLMDCMRLFTKEDVLDGDEKPTCCRCRGRKRCIKKFSIQRFPKILVLHLKRFSESRIRTSKLTTFVNFPLRDLDLREFASENTNHAVYNLYAVSNHSGTTMGGHYTAYCRSPGTGEWHTFNDSSVTPMSSSQVRTSDAYLLFYELASPPSRM

Molecular target: K6UbKMRC011

Protein | cleavage by ubiquitin cleavage enzymes, SDS-PAGE analysis (10 mg/L enzyme, 37 C, 12 hours)
B1 | the refolded K6UbKMRC011 was cleaved by the ubiquitin cleavage enzymes shown in Table 2 and correctly separated into K6Ub and KMRC011
B2 | the refolded K6UbKMRC011 was cleaved by the ubiquitin cleavage enzymes shown in Table 2 and correctly separated into K6Ub and KMRC011
B3 | the refolded K6UbKMRC011 was cleaved by the ubiquitin cleavage enzymes shown in Table 2 and correctly separated into K6Ub and KMRC011
